In PMC4490510, “Cloning, Expression and Characterization of a Thermostable Esterase HydS14 from Actinomadura sp. Strain S14 in Pichia pastoris” (International Journal of Molecular Sciences, 2015):

How the values were obtained:
[1] = system: T1, CCCC(=O)Oc1ccc([N+](=O)[O-])cc1; experiment: purified protein; type: biochemical, Actinomadura sp. S14; settings: 50 mM Tris-HCl pH 8.0, 50 °C, 0.4% Triton X-100, 0.1% gum arabic
T1 construct: ORF 258 aa, 26,604 Da, no signal peptide; secreted from Pichia pastoris X33 via pPICZalphaA with 6xHis tag (predicted 29,117 Da, ~30 kDa SDS-PAGE), Ni-Sepharose purified, not N-glycosylated

[2] = system: T2, CC(=O)Oc1ccc([N+](=O)[O-])cc1; experiment: purified protein; type: biochemical, Actinomadura sp. S14; settings: 50 mM Tris-HCl pH 8.0, 50 °C, 0.4% Triton X-100, 0.1% gum arabic
T2 construct: ORF 258 aa, 26,604 Da, no signal peptide; secreted from Pichia pastoris X33 via pPICZalphaA with 6xHis tag (predicted 29,117 Da, ~30 kDa SDS-PAGE), Ni-Sepharose purified, not N-glycosylated

HydS14 (Actinomadura sp. S14)
Km [1]: 0.21 ± 0.02 mM | Vmax [1]: 37.1 µmol/min/mg | kcat [1]: 2.47 ± 0.07 s⁻¹ | kcat/Km [1]: 11700 ± 780 M⁻¹ s⁻¹ | Km [2]: 0.36 ± 0.01 mM | Vmax [2]: 35.3 µmol/min/mg | kcat [2]: 2.37 ± 0.06 s⁻¹ | kcat/Km [2]: 6590 ± 40 M⁻¹ s⁻¹
